System: MBP-ERS WT (human)
Test: EMSA
Conditions: 1 mM Mg2+; 5 ug/mL heparin (unit prefix not given); none (in vitro transcript); 25 mM Tris-HCl pH 7.5, 50 mM NaCl, 1 mM MgCl2, 1 mM DTT, 5 ug/mL heparin (prefix not given), 10 nM 32P-tRNA, room temperature 30 min; native 4-16% gel on …

Which Kd does the source give for human tRNAGlu(TTC) here?
Its Kd is 0.516 µM.

— publication PMC9898101
